Measured values from US20180030144A1 (INNATE PHARMA, published 2018).
Residue numbers refer to the chain shown, from its start. Names may count otherwise.

Experiments:
Test in all cases: flow cytometry, HEK293T transfectants
human CD73 mutant 21 = biological target: T1, human CD73 mutant 21 (human, UniProt P21589 27-549)
T1 construct: Transfected in HEK293T cells
T1 chain: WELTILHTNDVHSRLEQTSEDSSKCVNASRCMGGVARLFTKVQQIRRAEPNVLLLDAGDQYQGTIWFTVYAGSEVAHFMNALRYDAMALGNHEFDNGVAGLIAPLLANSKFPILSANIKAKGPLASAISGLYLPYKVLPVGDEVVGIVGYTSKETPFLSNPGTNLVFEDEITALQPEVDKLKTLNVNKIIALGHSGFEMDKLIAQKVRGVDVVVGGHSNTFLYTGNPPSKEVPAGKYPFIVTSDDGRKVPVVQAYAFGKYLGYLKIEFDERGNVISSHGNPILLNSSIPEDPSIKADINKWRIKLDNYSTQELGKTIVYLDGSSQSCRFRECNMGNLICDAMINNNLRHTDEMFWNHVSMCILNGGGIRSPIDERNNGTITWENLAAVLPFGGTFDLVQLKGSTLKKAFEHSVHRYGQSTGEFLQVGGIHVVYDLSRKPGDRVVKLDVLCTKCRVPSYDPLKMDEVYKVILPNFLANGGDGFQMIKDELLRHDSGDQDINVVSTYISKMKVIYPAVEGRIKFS

human CD73 mutant 18 = biological target: T2, human CD73 mutant 18 (human, UniProt P21589 27-549)
T2 construct: Transfected in HEK293T cells
T2 chain: T1 chain with A71K, A81S, R83A, A99E, K110A, A127Q, L131S, L133S, K136A

human CD73 mutant 17 = biological target: T3, human CD73 mutant 17 (human, UniProt P21589 27-549)
T3 construct: Transfected in HEK293T cells
T3 chain: T1 chain with A71K, A99E, K110A, A127Q

human CD73 mutant 19 = biological target: T4, human CD73 mutant 19 (human, UniProt P21589 27-549)
T4 construct: Transfected in HEK293T cells
T4 chain: T1 chain with A71K, A99E, K110A, S126A, A127Q, S129A, L131S, L133S, K136A

human CD73 mutant 22 = biological target: T5, human CD73 mutant 22 (human, UniProt P21589 27-549)
T5 construct: Transfected in HEK293T cells
T5 chain: T1 chain with A127Q, K304A

Measured: binding result

B1: antibody 11E1 (antibody, human IgG1, V domains shown)
VH: EIQLQQSGPELVKPGASVKVSCKASGYAFTSYNMYWVKQSHGKSLEWIGYIDPYNGGTSYNQKFKGKATLTVDKSSSTAYMHLNSLTSEDSAVYYCARGYGNYKAWFAYWGQGTLVTVSA
VL: DAVMTQTPKFLLVSAGDRVTITCKASQSVTNDVAWYQQKPGQSPKLLIYYASNRYTGVPDRFTGSGYGTDFTFTISTVQAEDLAVYFCQQDYSSLTFGAGTKLELK
notes: Produced as chimeric human IgG1 with heavy chain N297Q (Kabat EU numbering); also called 1E11
no binding: human CD73 mutant 21 | human CD73 mutant 18 | human CD73 mutant 17 | human CD73 mutant 19 | human CD73 mutant 22

B2: antibody 6E1 (antibody, human IgG1, V domains shown)
VH: B1 VH with I2F, S44R, T58S, S85N, G101N
VL: B1 VL with D1S, A2I, V78M
notes: Produced as chimeric human IgG1 with heavy chain N297Q (Kabat EU numbering)
no binding: human CD73 mutant 21 | human CD73 mutant 18 | human CD73 mutant 17 | human CD73 mutant 19 | human CD73 mutant 22

B3: antibody 3C12 (antibody, human IgG1, V domains shown)
VH: B1 VH with E1Q, T30A, Y35N, E46D, T58S, Q62L, K63T, S77T
VL: DVVMTQTPKFLLVSAGDRVTITCKASQSVSNDVAWYQQKPGQSPKLLIYYASTRYTGVPDRFTGSGYGTDFTFTISTVQAEDLAVYFCQQDYSSLTFGAGTKLELKR
notes: Produced as chimeric human IgG1 with heavy chain N297Q (Kabat EU numbering); RTVAAP)
no binding: human CD73 mutant 21 | human CD73 mutant 18 | human CD73 mutant 17 | human CD73 mutant 19 | human CD73 mutant 22
